B1: Hairpin Ribozyme (parent)
chain: GUCCUCUUUCACGUGCGCGUGAAAGAGAGAAGUGAACCAGAGAAACACACGUUGUGGUAUAUUACCUGGUA

Variants of: B1
Test: self-cleavage, relative activity (ratio to wild type); higher = more cleavage; co-transcriptional

| Variant | self-cleavage |
| --- | --- |
| A41C G42C | 0.218 |
| G40A U67G | 0.147 |
| A39U G42C | 0.158 |
| A39U G42A | 0.18 |
| A39U U55G | 0.108 |
| A39U U55C | 0.183 |
| G40U A45C | 0.103 |
| G40U A45G | 0.132 |
| G40U A45U | 0.219 |
| G40A G56A | 0.117 |
| A41C G68A | 0.249 |
| A41C G68C | 0.225 |
| A41C G68U | 0.177 |
| G40A G42C | 0.0893 |
| G40A A45G | 0.147 |
| A39U U60G | 0.256 |
| G40A U55G | 0.121 |
| G40A U55C | 0.144 |
| G40U U58C | 0.278 |
| A39U G68C | 0.0955 |
| A39U G68A | 0.199 |
| G40C A41G | 0.163 |
| G40C U52A | 0.209 |
| G40C A49C | 0.0764 |

| Variant | self-cleavage |
| --- | --- |
| G40C A49G | 0.132 |
| G40C A49U | 0.169 |
| A39U C65A | 0.238 |
| A39U C65U | 0.201 |
| A41C G56U | 0.0688 |
| A39U U70A | 0.289 |
| G40A G51A | 0.578 |
| A41C A44G | 0.241 |
| A41C A44U | 0.154 |
| G40C U58G | 0.199 |
| G40U A44G | 0.161 |
| G40A C50U | 0.195 |
| A39U A43U | 0.223 |
| A39U A43G | 0.103 |
| G40A U63C | 0.15 |
| G40A U63A | 0.161 |
| A39U C46G | 0.164 |
| A39U A47C | 0.168 |
| A41C U62C | 0.329 |
| A41C C48A | 0.218 |
| G40U G68U | 0.195 |
| A41C U55G | 0.285 |
| G40A U58C | 0.558 |
| G40U A64G | 0.103 |

| Variant | self-cleavage |
| --- | --- |
| A39U U53G | 0.179 |
| G40A A49C | 0.0897 |
| G40U U67A | 0.159 |
| G40U A47U | 0.131 |
| G40C U55C | 0.163 |
| G40C U55G | 0.138 |
| G40U A71U | 0.131 |
| A39U G51C | 0.35 |
| A39U G51A | 0.585 |
| G40U G54A | 0.157 |
| G40U G54C | 0.155 |
| G40U U70A | 0.123 |
| G40C C46G | 0.21 |
| G40U C66G | 0.11 |
| G40U C66A | 0.593 |
| G40A U60C | 0.413 |
| G40U G57A | 0.128 |
| A39U U62C | 0.133 |
| G40A G69A | 0.122 |
| G40C G56U | 0.152 |
| A41C U67A | 0.27 |
| G40U G69A | 0.143 |
| G40U U60G | 0.128 |
| A41C G54U | 0.724 |

| Variant | self-cleavage |
| --- | --- |
| G40C A45G | 0.0193 |
| G40C A45U | 0.267 |
| A41C U53A | 0.786 |
| G40C U60C | 0.135 |
| G40U C46U | 0.106 |
| G40U C46A | 0.16 |
| A39U U58G | 0.227 |
| A39U U58A | 0.328 |
| A39U U58C | 0.46 |
| A41G A45C | 0.101 |
| A41G A45U | 0.105 |
| A41G A45G | 0.225 |
| G40A C46G | 0.136 |
| G40A C46U | 0.147 |
| A41C A59G | 0.152 |
| G40U A49U | 0.0847 |
| G40U A49C | 0.118 |
| G40C G57A | 0.111 |
| G40C U67A | 0.0737 |
| G40C A47G | 0.0685 |
| A41C U60G | 0.998 |
| G40A A61C | 0.14 |
| A41C C65U | 0.513 |
| A41C C65A | 0.782 |

| Variant | self-cleavage |
| --- | --- |
| A41C C65G | 0.247 |
| G40A U53A | 0.424 |
| A41C G57A | 0.128 |
| G40C U62C | 0.143 |
| G40C U62A | 0.116 |
| G40C C50U | 0.198 |
| G40U C50U | 0.11 |
| A41C C46U | 0.0492 |
| A41C C46A | 0.0559 |
| G40U A59U | 0.14 |
| G40U A43C | 0.165 |
| G40A A47C | 0.194 |
| G40A A47U | 0.154 |
| G40A A59G | 0.0897 |
| A39U A44G | 0.119 |
| G40U G42C | 0.0925 |
| A39U A71G | 0.221 |
| A39U G54A | 0.122 |
| G40A A71G | 0.402 |
| A39U U63G | 0.137 |
| A39U U63A | 0.114 |
| A41C U52C | 0.79 |
| G40U G51U | 0.179 |
| G40U G51A | 0.283 |

| Variant | self-cleavage |
| --- | --- |
| A39U G40C | 0.149 |
| A39U G40U | 0.149 |
| A39U G40A | 0.134 |
| A39U C48U | 0.206 |
| A39U C48G | 0.124 |
| A39U C48A | 0.135 |
| G40C A59U | 0.198 |
| A41C A64C | 0.285 |
| A39U A64U | 0.16 |
| A39U A64C | 0.177 |
| G40C C65A | 0.145 |
| G40C C65G | 0.156 |
| A41C A43U | 0.13 |
| A41C A61C | 0.456 |
| A39U A41U | 0.458 |
| A39U A41C | 0.3 |
| A41G A49C | 0.0938 |
| A39U A59U | 0.184 |
| A39U A59G | 0.101 |
| A39U A59C | 0.172 |
| G40U A41U | 0.221 |
| A41C A47C | 0.468 |
| G40C A61U | 0.224 |
| G40U A61U | 0.132 |

| Variant | self-cleavage |
| --- | --- |
| G40U A61C | 0.0593 |
| G40C A71G | 0.165 |
| G40C A71C | 0.401 |
| G40C G42A | 0.0581 |
| G40C G42U | 0.191 |
| G40C U53A | 0.235 |
| G40A G54A | 0.19 |
| G40A G54C | 0.0891 |
| G40C G51A | 0.115 |
| G40A G57U | 0.0976 |
| G40A G57C | 0.0825 |
| A41G A44C | 0.109 |
| A41C A71C | 1.53 |
| A41C U70C | 1.04 |
| G40U U55A | 0.104 |
| A41C G69U | 0.341 |
| A41C G69C | 0.287 |
| A41C G69A | 0.524 |
| G40C A44G | 0.101 |
| G40C A44U | 0.151 |
| G40C U70A | 0.143 |
| G40C U70G | 0.131 |
| G40C U70C | 0.13 |
